Source: patent publication US9688764B2, “Methods of treating breast cancer by administering anti-human prolactin receptor (PRLR) antibodies” (REGENERON PHARMACEUTICALS, INC., priority 2013, dated 2017)

T1: HEK293/mPRLR (Mus musculus, UniProt Q08501)
T1 construct: HA; expressed in transfected cells; host or cells: HEK293
T1 sequence (Q08501 20-608): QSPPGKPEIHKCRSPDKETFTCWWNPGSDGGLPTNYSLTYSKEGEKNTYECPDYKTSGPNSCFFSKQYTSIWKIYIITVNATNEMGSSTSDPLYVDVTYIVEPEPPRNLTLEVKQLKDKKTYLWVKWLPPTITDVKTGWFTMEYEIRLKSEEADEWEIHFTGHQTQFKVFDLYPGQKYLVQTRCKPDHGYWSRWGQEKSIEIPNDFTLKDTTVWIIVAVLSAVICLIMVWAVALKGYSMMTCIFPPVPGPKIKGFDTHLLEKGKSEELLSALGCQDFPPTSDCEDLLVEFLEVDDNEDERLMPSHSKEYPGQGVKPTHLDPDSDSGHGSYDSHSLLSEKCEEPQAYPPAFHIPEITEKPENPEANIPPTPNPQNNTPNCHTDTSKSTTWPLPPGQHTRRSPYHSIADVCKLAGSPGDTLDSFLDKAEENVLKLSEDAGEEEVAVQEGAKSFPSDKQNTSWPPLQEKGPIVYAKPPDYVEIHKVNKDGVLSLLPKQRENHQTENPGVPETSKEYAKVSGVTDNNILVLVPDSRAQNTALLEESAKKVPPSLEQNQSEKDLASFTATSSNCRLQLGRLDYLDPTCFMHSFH

T2: HEK293/hPRLR (Homo sapiens, UniProt P16471)
T2 construct: HA; expressed in transfected cells; host or cells: HEK293
T2 sequence (P16471 25-622): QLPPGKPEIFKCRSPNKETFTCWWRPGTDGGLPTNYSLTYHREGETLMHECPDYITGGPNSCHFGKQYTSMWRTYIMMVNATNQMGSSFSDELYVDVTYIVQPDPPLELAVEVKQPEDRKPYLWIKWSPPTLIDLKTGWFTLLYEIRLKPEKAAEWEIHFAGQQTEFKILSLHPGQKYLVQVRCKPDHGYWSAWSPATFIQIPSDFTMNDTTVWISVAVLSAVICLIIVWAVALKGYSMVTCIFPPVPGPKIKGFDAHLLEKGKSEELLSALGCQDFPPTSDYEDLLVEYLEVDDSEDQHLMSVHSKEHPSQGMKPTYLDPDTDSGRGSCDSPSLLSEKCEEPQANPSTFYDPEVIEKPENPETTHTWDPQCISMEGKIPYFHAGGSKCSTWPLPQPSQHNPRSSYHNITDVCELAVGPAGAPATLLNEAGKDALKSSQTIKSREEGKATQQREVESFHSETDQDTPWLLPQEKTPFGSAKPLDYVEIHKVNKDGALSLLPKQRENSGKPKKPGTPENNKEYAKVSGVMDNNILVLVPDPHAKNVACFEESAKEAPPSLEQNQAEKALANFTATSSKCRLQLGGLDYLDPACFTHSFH

T3: T47D (native PRLR expressing cell line) (Homo sapiens, UniProt P16471)
T3 construct: a native PRLR expressing cell line (T47D); endogenous in cells; host or cells: T47D
T3 sequence (P16471 25-622): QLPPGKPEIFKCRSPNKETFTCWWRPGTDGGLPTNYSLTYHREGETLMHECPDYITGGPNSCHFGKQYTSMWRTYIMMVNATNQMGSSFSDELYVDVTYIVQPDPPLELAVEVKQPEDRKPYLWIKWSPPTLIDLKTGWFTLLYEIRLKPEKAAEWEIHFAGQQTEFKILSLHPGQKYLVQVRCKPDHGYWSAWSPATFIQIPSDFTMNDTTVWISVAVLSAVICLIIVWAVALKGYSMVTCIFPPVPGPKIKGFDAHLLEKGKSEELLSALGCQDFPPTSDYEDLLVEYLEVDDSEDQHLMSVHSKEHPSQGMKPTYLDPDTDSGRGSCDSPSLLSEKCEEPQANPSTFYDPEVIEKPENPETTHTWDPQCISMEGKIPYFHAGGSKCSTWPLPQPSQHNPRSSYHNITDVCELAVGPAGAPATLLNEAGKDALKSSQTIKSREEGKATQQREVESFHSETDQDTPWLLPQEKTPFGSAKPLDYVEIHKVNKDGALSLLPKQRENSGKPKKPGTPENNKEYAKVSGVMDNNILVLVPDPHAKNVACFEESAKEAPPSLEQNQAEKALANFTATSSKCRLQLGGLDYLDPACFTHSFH

B1: H1H6785P: anti-PRLR antibody, human IgG1 Fc; HCVR/LCVR SEQ ID NOs 98/106 (antibody, V domains shown)
VH: EVQLVESGGGLVQPGGSLRLSCAASGFTFSSYEMNWVRQAPGKGLEWISYISSRGGTIYYADSIKGRFTIYRDNARNSLYLQMNSLRAEDTAIYYCARLSGVDIFDIWGQGTMVTVSS
VL: DIQMTQSPSSLSASVGDRVTITCRASQGISNYLAWYQQKPGKVPKLLIYFASTLQSGVPSRFSGGGSGTDFTLTISSLQPEDVATYYCQRYNSAPLTFGGGTKVEIK
modifications: human IgG1 Fc
B2: H1H6793P: anti-PRLR antibody, human IgG1 Fc; HCVR/LCVR SEQ ID NOs 146/154 (antibody, V domains shown)
VH: EVQLVESGGGLVQPGGSLRLSCAASGFSFSIYAMSWFRQAPGKGLEWVSAINGRGDGTHYADSVKGRFTISRDNSKTTLYLQMSSLRAEDTAVYYCAKPVMSTNGFDIWGQGTMVTVSS
VL: DIQMTQSPSTLSASVGDRVTITCRASQSISSWLAWYQLKPGKAPKLLIYKASNLESGVPSRFSGSGSGTEFTLTISSLQPDDFATYYCQQYNIYWTFGQGTKVEIK
modifications: human IgG1 Fc
B3: H1H6792P: anti-PRLR antibody, human IgG1 Fc; HCVR/LCVR SEQ ID NOs 130/138 (antibody, V domains shown)
VH: EVQLVESGGGLVQPGRSLRLSCAASGFTLDDHAVHWVRQAPGKGLEWVSGISWNSVYIDYADSVKGRFTIFRDNAKNSLYLQMNSLRAEDTAFYYCARDIEGARDYWGQGTLVTVSS
VL: DIQMTQSPSSLSASVGDRVTITCRASQGIRNDLGWYQQKPGKAPKRLIYAASSLQSGVPSRFSGSGYGTEFTLTISSLQPEDFAPYYCLQHNSYPLTFGGGTKVEIK
modifications: human IgG1 Fc
B4: H1H6790P: anti-PRLR antibody, human IgG1 Fc; HCVR/LCVR SEQ ID NOs 114/122 (antibody, V domains shown)
VH: EVQLVESGGGLVQPGGSLRLSCAASGFTFSSYAMTWVRQAPGKGLEWVSAITGSVGNTYYADSVKGRFTISRDNSKNTLYLQMNSLGAEDTAEYYCAKGAGMTTNWYLDLWGRGTLVTVSS
VL: DIVMTQSPDSLAVSLGARATINCKSSQSVLYSSNNQNYLTWYQQKPGQPPKLLIKWASTRESGVPDRFSGSGSGTDFTLTISSLQAEDVAVYYCQQYASSPYTFGQGTKLEIK
modifications: human IgG1 Fc
B5: H1H6795P: anti-PRLR antibody, human IgG1 Fc; HCVR/LCVR SEQ ID NOs 162/170 (antibody, V domains shown)
VH: QVQLVQSGAEVKKPGASVKVSCKASGYTFGTSGITWVRQAPGQGLEWMGWSSAYNGKTDYAQKFQDRVTMTTDTSTTTGYMEMRSLTSDDTAVYYCTTVVRRPFDFWGQGTLVTVSS
VL: DIQMTQSPSSLSASVGDRVTITCRASQDINNFLAWFQQKPGKAPKSLIYAASSLQSGVPSKFSGGGSGTDFALTISSLQPEDFATYYCQQYSSYPITFGQGTRLEIK
modifications: human IgG1 Fc
B6: H1H6797P: anti-PRLR antibody, human IgG1 Fc; HCVR/LCVR SEQ ID NOs 178/186 (antibody, V domains shown)
VH: EVQLVESGGGLVQPGGSLRLSCIVSGFTFSGSWMSWVRQLPGKGLEWVANIKEDGSDSYYVDSVEGRFTISRDNAKSSLYLQMNSLRVDDTAVYFCARARTVPLHYWGQGTLVTVSS
VL: DIQMTQSPSTLSASVGDRVTITCRASQSINIWLAWYQQKPGKAPKLLIYRASYLESGVPSSFAGGGSGTEFTLTISSLQPDDFGTYYCQHYNSYPFTFGQGTKLEIK
modifications: human IgG1 Fc
B7: H1H6800P: anti-PRLR antibody, human IgG1 Fc; HCVR/LCVR SEQ ID NOs 194/202 (antibody, V domains shown)
VH: EVQLVESGGGLVQPGRSLRLSCAASGFTFDGYAMHWVRQGPGKGLEWVSGISWYSDTLGYADSVKGRFTISRDNAKNSLYLQMNSLRTEDTAFYYCAKISSSGWAFDYWGQGTLVTVSS
VL: EIVLTQSPGTLSLSPGERATLSCRASHSVSSAYLAWYQQKPGQTPRLLIYGTSSRATGIPDRFSGSGSGTDFTLTISRLEPEDFAVYYCQQYGSSPLFTFGPGTKVDIK
modifications: human IgG1 Fc

Legend:
Experiment in all cases: FACS cell surface binding
[1] = target: T1, HEK293/mPRLR
Description: (§1) The ability of anti-PRLR antibodies to selectively bind PRLR expressing cell lines was next determined. Human, monkey macaca fascicularis, and mouse PRLR constructs with an HA tag were stably introduced into HEK293 cells via Lipofectamine 2000-mediated transfection methodology. Transfectants (HEK293/hPRLR, HEK293/mfPRLR and HEK293/mPRLR) were selected for at least 2 weeks in complete growth media plus G418.
(§2) Cell surface expression of PRLR on 293/hPRLR cells was assessed via FACS analysis. Briefly, 1×10^5 cells were incubated with 10 μg/ml of Control antibody I, or an isotype control for 30 min on ice in antibody dilution buffer. Following two washes with antibody dilution buffer, cells were incubated with 10 μg/ml of PE conjugated anti-human secondary antibodies for 30 min on ice. Following two additional washes, samples were run on a Hypercyt® cytometer and analyzed in FORECYT™ (IntelliCyt, Albuquerque, N. Mex.). The mean fluorescence intensities (MFI) were expressed as fold change above isotype control levels (background). FACS binding confirmed that Control I selectively bound to 293/hPRLR expressing cells with MFIs that were 30 fold above background (isotype ctrl) levels and less than 2 fold binding on parental cells.
(§3) Next, the anti-PRLR antibodies of the present invention were tested via FACS for selective binding to the engineered overexpressing PRLR HEK293 cell lines, as well as to non-expressing HEK293 cells and a native PRLR expressing cell line (T47D).

[2] = target: T2, HEK293/hPRLR
Description: as §1, §2, §3

[3] = tested on: HEK293 (non-expressing parental cells)
Description: as §1, §2, §3

[4] = target: T3, T47D (native PRLR expressing cell line)
Description: as §1, §2, §3

[5] = tested on: HEK293/mfPRLR; parameters: species or system macaca fascicularis
Description: as §1, §2, §3

Chain of HEK293/mfPRLR (as listed by the source): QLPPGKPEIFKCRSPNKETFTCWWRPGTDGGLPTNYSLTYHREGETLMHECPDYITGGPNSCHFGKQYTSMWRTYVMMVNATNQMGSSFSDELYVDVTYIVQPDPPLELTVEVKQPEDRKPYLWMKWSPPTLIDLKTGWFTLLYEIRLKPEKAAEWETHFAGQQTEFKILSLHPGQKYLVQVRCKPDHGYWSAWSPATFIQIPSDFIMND

Molecule | FACS Cell Binding (Fold Above Background) [1] [Fold Above Background] | FACS Cell Binding (Fold Above Background) [2] [Fold Above Background] | FACS Cell Binding (Fold Above Background) [3] [Fold Above Background] | FACS Cell Binding (Fold Above Background) [4] [Fold Above Background] | FACS Cell Binding (Fold Above Background) [5] [Fold Above Background]
B1 | 2 | 37 | 1 | 40 | 26
B2 | 2 | 2 | 2 | 43 | 32
B3 | 3 | 37 | 1 | 37 | 28
B4 | 1 | 37 | 1 | 34 | 24
B5 | 1 | 1 | 1 | 34 | 22
B6 | 2 | 1 | 1 | 38 | 25
B7 | 1 | 35 | 1 | 41 | 29
